Our source for the Antibodies Bound Per Cell (ABC) (antibodies bound per cell) values is patent US20150238603A1.

Experiment [1] has as its target Human CD38 (human) (UniProt P28907). The experiment is described as follows: flow cytometry, QuantiBRITE system, NCI-H929 cells. (In general: Flow cytometry measures light scatter and fluorescence of single cells or particles in a stream.)
The target is the same in experiment [2]. Put plainly: flow cytometry, QuantiBRITE system, RPMI8226 cells.
The target is the same in experiment [3]. The experiment is described as follows: flow cytometry, QuantiBRITE system, LP1 cells.

Bounds are passed on as bounds.

Chain of UniProt P28907 (P28907 whole entry): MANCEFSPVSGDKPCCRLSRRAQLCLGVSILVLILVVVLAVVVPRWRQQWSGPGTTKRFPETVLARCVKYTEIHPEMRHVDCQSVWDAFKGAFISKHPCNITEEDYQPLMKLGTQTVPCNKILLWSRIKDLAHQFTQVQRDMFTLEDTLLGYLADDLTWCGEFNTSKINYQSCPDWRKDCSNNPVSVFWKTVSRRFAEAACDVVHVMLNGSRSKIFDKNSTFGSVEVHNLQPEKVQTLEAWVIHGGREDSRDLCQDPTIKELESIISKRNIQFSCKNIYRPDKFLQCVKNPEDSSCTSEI

In the case of “QuantiBRITE CD38-PE antibody (Becton Dickinson GmbH, Clone HB7, CAT #342371)”, the Antibodies Bound Per Cell (ABC) (antibodies bound per cell) in experiment [1] was 195000; in experiment [2], more than 677000; in experiment [3], 125000.
